In paper PMC3237428:

Target: β-catenin (endogenous in HEK293 cells) (human (endogenous in HEK293)) (UniProt P35222)
Assay: co-IP; reciprocal immunoprecipitation from stable HEK cell lysates with protein A/G agarose, anti-β-catenin antibody or rabbit antibody BsloC; western blot; 0.5% DDM

Chain of UniProt P35222 (P35222 whole entry): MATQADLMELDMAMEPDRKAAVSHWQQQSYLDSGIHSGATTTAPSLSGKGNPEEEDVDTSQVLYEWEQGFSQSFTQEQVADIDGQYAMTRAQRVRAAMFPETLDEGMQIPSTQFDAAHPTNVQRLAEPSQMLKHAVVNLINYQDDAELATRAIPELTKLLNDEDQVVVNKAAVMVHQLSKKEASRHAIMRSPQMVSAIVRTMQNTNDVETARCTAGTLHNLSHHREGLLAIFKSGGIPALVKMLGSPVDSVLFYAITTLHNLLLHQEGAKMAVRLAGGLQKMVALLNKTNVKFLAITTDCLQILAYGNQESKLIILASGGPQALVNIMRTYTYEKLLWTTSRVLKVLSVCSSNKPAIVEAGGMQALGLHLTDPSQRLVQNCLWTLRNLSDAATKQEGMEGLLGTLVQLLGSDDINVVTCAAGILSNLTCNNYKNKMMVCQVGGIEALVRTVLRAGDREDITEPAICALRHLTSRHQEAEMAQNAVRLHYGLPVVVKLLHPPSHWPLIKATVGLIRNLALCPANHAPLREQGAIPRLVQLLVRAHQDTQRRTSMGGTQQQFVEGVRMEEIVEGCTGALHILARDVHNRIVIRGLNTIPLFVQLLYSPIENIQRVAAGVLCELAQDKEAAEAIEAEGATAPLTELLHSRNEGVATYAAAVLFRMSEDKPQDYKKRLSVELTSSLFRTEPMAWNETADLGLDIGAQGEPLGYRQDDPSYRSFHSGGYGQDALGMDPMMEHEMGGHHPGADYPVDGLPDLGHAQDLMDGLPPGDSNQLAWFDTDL

ratio of HSlo in β-catenin immunoprecipitates, wild type HSlo to HSloΔS10 (fold (wild type over HSloΔS10)): 4
Substance: HSloΔS10 (HSlo deletion construct lacking the S10 region) (natural protein)
